Laboratory results taken from patent US20240109974A1 (SHANDONG SIMCERE BIOPHARMACEUTICAL, published 2024).

T1: human TNFR2 on the surface of CHO-TNFR2 cells (human, UniProt P20333 23-461)
T1 construct: whole, on cells
T1 sequence (looked up): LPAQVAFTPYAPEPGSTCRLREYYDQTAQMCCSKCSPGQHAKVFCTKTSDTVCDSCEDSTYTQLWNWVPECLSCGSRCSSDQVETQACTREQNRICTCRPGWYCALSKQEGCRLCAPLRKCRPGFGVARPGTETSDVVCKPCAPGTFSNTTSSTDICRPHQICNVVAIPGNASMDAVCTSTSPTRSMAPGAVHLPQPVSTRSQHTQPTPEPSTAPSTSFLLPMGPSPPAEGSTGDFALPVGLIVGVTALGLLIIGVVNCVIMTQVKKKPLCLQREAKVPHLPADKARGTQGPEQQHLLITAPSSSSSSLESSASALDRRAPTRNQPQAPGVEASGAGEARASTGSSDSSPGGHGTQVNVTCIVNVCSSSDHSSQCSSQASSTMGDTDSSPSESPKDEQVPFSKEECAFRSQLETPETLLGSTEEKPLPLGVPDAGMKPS


Columns and labels:
[1] = target: T1, human TNFR2 on the surface of CHO-TNFR2 …; experiment: flow cytometry on CHO-TNFR2 cells; EC50, reference itself
Procedure: The transfected full-length plasmid of human TNFR2 was purchased from Sino Biological (Cat #HG10417-UT, NCBI Ref Seq: NM_001066.2). The experiment was conducted at a cell density within 80%. The cell medium was discarded; the cells were rinsed with PBS, and digested with 1 ml trypsin for 2 minutes; the digestion was stopped with a Ham's F12 complete medium containing 10% FBS, and then a cell suspension was made. The cell suspension was counted, and then an appropriate amount of cell suspension was centrifuged at 350×g; the supernatant was discarded; a corresponding volume of blocking solution (10% FBS+PBS) at a density of 1×10⁷ cells/ml was added to resuspend the cells, and the mixture was incubated at 4° C. for 30 minutes. After the incubation, the mixture was centrifuged at 350×g to remove the supernatant, and the cells were resuspended in a staining buffer (2% FBS+PBS) to a density of 2×10⁶ cells/ml, and spread onto a 96-well plate, with 50 μl of cell suspension added to each well for later use. The antibody was diluted with PBS for 10-fold gradient dilution from the highest concentration of 20 μg/m (twice the concentration); the diluted antibody was added to the well containing 50 μl of cell suspension, and placed on a microplate shaker for shaking at 500 rpm for 1 minute, so that the antibody was fully mixed with the cells; the mixture was incubated at 4° C. for 1 h. After the incubation, the cells were washed twice with the staining buffer, with 100 μl per well, and centrifuged at 350-g for 5 minutes, and the supernatant was discarded. […] After the staining, similarly, the cells were washed twice with the staining buffer; finally, the cells were resuspended in 200 μl of staining buffer; signals were detected by a flow cytometer (Thermo Attune NxT). […] The binding curve of an antibody was drawn with antibody concentration as the abscissa and corresponding mean fluorescence intensity (MFI) fold as the ordinate, and fitted with four parameters (GraphPad Prism9) to calculate the EC50 value.

[2] = target: T1, human TNFR2 on the surface of CHO-TNFR2 …; experiment: competition flow cytometry on CHO-TNFR2 cells, competitor TNFα-biotin; AUC against 219-WT
Procedure: CHO stable cells highly expressing human TNFR2 were used for the experiment (the same as CHO-TNFR2 in Example 4). The CHO-TNFR2 cells were digested, washed twice with DPBS, then stained with Live/Dead (L/D) (20 minutes at room temperature), and plated at a density of 1×10⁵ cells/50 μl/well. A test anti-TNFR2 antibody was diluted to 6 μg/ml with a staining buffer as the starting concentration: the antibody was subjected to 3.33-fold gradient dilution, with a total of 7 concentration points. The diluted antibody was added to the plated cells at 50 μl/well, and the mixture was mixed well by gentle pipetting, and incubated at 4° C. for 30 minutes. Then the diluted 100 ng/ml of human TNFα-biotin was added at 100 μl/well, and the mixture was mixed well by gentle pipetting, and then incubated at 4° C. for 30 minutes. The mixture was washed twice with a staining buffer, and then 0.12 μg/ml PE-streptavidin (BioLegend, Cat #405204) was added at 100 μl/well; the resulting mixture was incubated at 4° C. for 30 minutes. The mixture was washed twice with a staining buffer, and then 150 μl of staining buffer was added to resuspend the cells; signals were detected by a flow cytometer (Thermo Attune NxT). The inhibitory curve of an antibody was drawn with antibody concentration as the abscissa and corresponding MFI value as the ordinate, and fitted with four parameters (GraphPad Prism9) to calculate the IC50 value. The smaller the IC50 value, the stronger the ability of an antibody to inhibit the binding of human TNFα to human TNFR2. The blocking effect of a humanized antibody was normalized to its corresponding human-murine chimeric WT antibody. The higher the percentage value, the better the inhibitory effect of the humanized antibody.

| Binder | % Relative activity (WT antibody/test antibody) [1] [%] | % Relative activity (WT antibody/test antibody) [2] [%] |
| --- | --- | --- |
| 224-WT (antibody, V domains shown, Human-murine chimeric wild-type molecule; also called human-murine chimeric antibody WT of #224) VH: EVQLQESGPEIVKPGASVKLSCTASGFNNKDIYMHWVKQRPEQGLEWIGRIDPATGNTKHDPKFQDKATLSSDTSSNTAYLQFSSLTSEDTAVYYCAHSPYGDFGAMDYWGQGTTVTVSS VL: DIQMTQSPAIMSASLGERVTMTCTASSSVSSNYLHWYQQKPGSSPKLWIYSTSNLPSGVPARFSGSGSGTSYSLTISSMEAEDAATYYCHQYHRSPWTFGGGTKLEIK | 100 | – |
| 219-WT (antibody, V domains shown, Human-murine chimeric wild-type molecule) VH: EVQLQESGAELVRPGASVKLSCKASGYSFTNYWMNWVKQRPGQGLEWIGMIHPSDTETRLNQNFKDKATLTVDKSSSTSYMQLSSPTSEDSAVYYCARGEGLGAARSVSMDYWGQGTTVTVSS VL: DILMTQSPSSLSASLGDRVTISCRASQDISNYLNWYQQKPDGTVKVLIYYTAILHSGVPSRFSGSGSGTDYSLTISNLEQEDIATYFCQQGNTLPWTFGGGTKLEIK | 100 | – |
| 219-Hu3 (antibody, V domains shown, also called VH5 + VL5) VH: QVQLVQSGAEVKKPGSSVKVSCKASGYSFTNYWMNWVRQAPGQGLEWMGMIHPSDTETRLNQNFKDRVTITADKSTSTAYMELSSLRSEDTAVYYCARGEGLGAARSVSMDYWGQGTLVTVSS VL: DIQMTQSPSSLSASVGDRVTITCRASQDISNYLNWYQQKPDGTVKLLIYYTAILHSGVPSRFSGSGSGTDYSLTISSLQPEDFATYFCQQGNTLPWTFGQGTKVEIK | – | 98.5 |
| 219-Hu1 (antibody, V domains shown, also called VH3 + VL5) VH: QVQLVQSGAEVKKPGASVKVSCKASGYSFTNYWMNWVRQAPGQRLEWMGMIHPSDTETRLNQNFKDRVTITRDTSASTAYMELSSLRSEDTAVYYCARGEGLGAARSVSMDYWGQGTLVTVSS VL: DIQMTQSPSSLSASVGDRVTITCRASQDISNYLNWYQQKPDGTVKLLIYYTAILHSGVPSRFSGSGSGTDYSLTISSLQPEDFATYFCQQGNTLPWTFGQGTKVEIK | – | 102 |
| 219-Hu2 (antibody, V domains shown, also called VH4 + VL5) VH: QVQLVQSGAEVKKPGSSVKVSCKASGYSFTNYWMNWVRQAPGQGLEWMGMIHPSDTETRLNQNFKDKATITADKSTSTAYMELSSLRSEDTAVYYCARGEGLGAARSVSMDYWGQGTLVTVSS VL: DIQMTQSPSSLSASVGDRVTITCRASQDISNYLNWYQQKPDGTVKLLIYYTAILHSGVPSRFSGSGSGTDYSLTISSLQPEDFATYFCQQGNTLPWTFGQGTKVEIK | – | 102 |
| 219-Hu4 (antibody, V domains shown, also called VH6 + VL5) VH: QVQLVQSGAEVKKPGSSVKVSCKASGYSFTNYWMNWVKQAPGQGLEWIGMIHPSDTETRLNQNFKDKATLTVDKSTSTAYMELSSLRSEDTAVYYCARGEGLGAARSVSMDYWGQGTLVTVSS VL: DIQMTQSPSSLSASVGDRVTITCRASQDISNYLNWYQQKPDGTVKLLIYYTAILHSGVPSRFSGSGSGTDYSLTISSLQPEDFATYFCQQGNTLPWTFGQGTKVEIK | – | 108 |
| 219-Hu5 (antibody, V domains shown, also called VH7 + VL5) VH: QVQLVQSGAEVKKPGSSVKVSCKASGYSFTNYWMNWVRQAPGQGLEWMGMIHPSDTETRLNQNFKDRVTITVDKSTSTAYMELSSLRSEDTAVYYCARGEGLGAARSVSMDYWGQGTLVTVSS VL: DIQMTQSPSSLSASVGDRVTITCRASQDISNYLNWYQQKPDGTVKLLIYYTAILHSGVPSRFSGSGSGTDYSLTISSLQPEDFATYFCQQGNTLPWTFGQGTKVEIK | – | 109 |
| 001-WT (antibody, V domains shown, Human-murine chimeric wild-type molecule; also called human-murine chimeric antibody WT of #001) VH: EVQLQESGGGLVQPGGSLNLSCAASGFAFSTYDLSWVRQTPEKRLEWVAYINNGGISTYYSDTVKGRFTISRDNAKNTLYLQMSSLKSEDTAMYYCVRGPFYGSANYFDYWGQGTTVTVSS VL: EIVMTQSPASLSLSVGETVTITCRTSESIYSNLPWYQQKQGKSPQLLVYDATKLAEGVPSRFSGSESGTQYSLKINSLQSEDFGTYYCQHFWVTPWTFGGGTKLEIK | 100 | – |
